Measurements as given in patent US20190048089A1 (Janssen / Centocor, published 2019).

T1: cyno CD40 on cyno spleen B cells (Macaca fascicularis (cynomolgus), UniProt P25942 21-277 (human entry))
T1 chain: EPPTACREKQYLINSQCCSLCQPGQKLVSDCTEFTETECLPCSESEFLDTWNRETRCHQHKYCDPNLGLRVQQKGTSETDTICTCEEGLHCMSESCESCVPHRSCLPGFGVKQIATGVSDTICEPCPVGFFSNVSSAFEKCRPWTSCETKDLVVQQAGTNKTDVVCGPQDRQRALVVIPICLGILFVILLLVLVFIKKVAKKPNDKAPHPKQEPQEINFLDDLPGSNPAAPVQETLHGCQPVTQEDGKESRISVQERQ


How the values were obtained:
[1] = target: T2, human CD40 on cells (human tonsillar B cells, human dendritic cells, HEK-Blue CD40L cells) (human, UniProt P25942 21-277); assay: cell-based or functional assay
[2] = target: T1, cyno CD40 on cyno spleen B cells; assay: cell-based or functional assay
[3] = target: T2, human CD40 on cells (human tonsillar B …); assay: cell-based or functional assay; remark: listed apart in the source
[4] = target: T3, human CD40 (analyte in SPR) (human, UniProt P25942 21-193); assay: affinity in benchmark table; method not restated (SPR ProteOn of Example 3 presumed)
T3 construct: also called huCD40

[5] = target: T2, human CD40 on cells (human tonsillar B …); assay: cell-based or functional assay; remark: listed apart in the source
[6] = target: T1, cyno CD40 on cyno spleen B cells; assay: cell-based or functional assay
[7] = target: T2, human CD40 on cells (human tonsillar B …); assay: cell-based or functional assay; remark: listed apart in the source
[8] = target: T3, human CD40 (analyte in SPR); assay: SPR, ProteOn XPR36, mAb captured on anti-human IgG Fc, CD40 as analyte, 25 C, 1:1 Langmuir
Experimental: Affinity of the antibodies to human CD40 was assessed using Surface Plasmon Resonance (SPR) using a ProteOn XPR36 system (BioRad). […] Approximately 5000 RU (response units) of mAbs were immobilized. The kinetic experiments were performed at 25° C. in running buffer (DPBS+0.01% P20+100 μg/ml BSA). To perform kinetic experiments, 200 RU of mAbs were captured followed by injections of analytes (human or cyno CD40) at 5 concentrations (in a 4-fold serial dilution). The association phase was monitored for 3 minutes at 50 μL/min, then followed by 15 minutes of buffer flow (dissociation phase). The chip surface was regenerated with two 18 second pulses of 100 mM H₃PO₄ (Sigma, Cat#7961) at 100 μL/min.
The collected data were processed using ProteOn Manager software. First, the data was corrected for background using inter-spots. Then, double reference subtraction of the data was performed by using the buffer injection for analyte injections. The kinetic analysis of the data was performed using a Langmuir 1:1 binding model. The results were reported in the format of Ka (On-rate), Kd (Off-rate) and KD (equilibrium dissociation constant).

[9] = target: T3, human CD40 (analyte in SPR); assay: affinity in benchmark table; method not restated (SPR ProteOn of Example 3 presumed); Table 14 benchmark table, not Table 12

Row | Binder | IC50, B cell proliferation, membrane CD40L, human B-cells [1] [nM] | IC50, B cell proliferation, soluble CD40L, human B-cells [1] [nM] | IC50, B cell proliferation, soluble CD40L, cyno B-cells [2] [nM] | IC50, human DC IL-12p40 production, membrane CD40L [3] [nM] | IC50, human DC IL-12p40 production, soluble CD40L [3] [nM] | Kd [4] [nM] | IC50, mCD40L-driven human B-cell proliferation [5] [nM] | IC50, sCD40L-driven human B-cell proliferation [5] [nM] | IC50, sCD40L-driven cyno B-cell proliferation [6] [nM] | IC50, mCD40L-driven DC IL-12p40 production [7] [nM] | IC50, sCD40L-driven DC IL-12p40 production [7] [nM] | Kd [8] [nM] | koff [8] [s⁻¹] | kon [8] [M⁻¹ s⁻¹] | Kd [9] [nM]
1 | Astellas/Kirin ASKP-1240 (antibody, human IgG4 S228P, kappa, V domains shown, Benchmark) VH: QLQLQESGPGLLKPSETLSLTCTVSGGSISSPGYYGGWIRQPPGKGLEWIGSIYKSGSTYHNPSLKSRVTISVDTSKNQFSLKLSSVTAADTAVYYCTRPVVRYFGWFDPWGQGTLVTVSS VL: AIQLTQSPSSLSASVGDRVTITCRASQGISSALAWYQQKPGKAPKLLIYDASNLESGVPSRFSGSGSGTDFTLTISSLQPEDFATYYCQQFNSYPTFGQGTKVEIKR | 0.132 | 0.079 | 0.146 | 0.28 | 0.119 | 0.181 |  |  |  |  |  |  |  |  | 
2 | Antibody D (antibody, human IgG1, kappa, L234A L235A, V domains shown, Benchmark; also called antibody B IgG1KOb (U.S. Pat. No. 8,591,900)) VH: EVQLVESGGGLVKPGGSLRLSCAASGFTFSDYGMHWVRQAPGKGLEWVAYISSGNRIIYYADTVKGRFTISRDNAKNSLYLQMNSLRAEDTAVYYCARQDGYRYAMDYWGQGTLVTVSS VL: DIVMTQSPDSLAVSLGEKVTINCKSSQSLLNSGNQKNYLTWHQQKPGQPPKLLIYWTSTRESGVPDRFSGSGSGTDFTLTISSLQAEDVAVYYCQNDYTYPLTFGGGTKVEIKR | 1.93 | 0.68 |  | 3.63 | 0.781 | 0.58 |  |  |  |  |  |  |  |  | 
3 | Novartis CFZ533 (antibody, human IgG1, kappa, N297A, V domains shown, Benchmark) VH: QVQLVESGGGVVQPGRSLRLSCAASGFTFSSYGMHWVRQAPGKGLEWVAVISYEESNRYHADSVKGRFTISRDNSKITLYLQMNSLRTEDTAVYYCARDGGIAAPGPDYWGQGTLVTVSS VL: DIVMTQSPLSLTVTPGEPASISCRSSQSLLYSNGYNYLDWYLQKPGQSPQVLISLGSNRASGVPDRFSGSGSGTDFTLKISRVEAEDVGVYYCMQARQTPFTFGPGTKVDIRR | 0.279 | 0.223 |  | 0.948 | 0.32 | 0.00936 |  |  |  |  |  |  |  |  | 
4 | C40B176 (antibody, human IgG1, lambda, IgG1sigma) heavy: EVQLVESGGGLVQPGGSLRLSCAASGFTFSSYAMSWVRQAPGKGLEWVSTINAAGGGTYYADSVKGRFTISRDNSKNTLYLQMNSLRAEDTAVYYCAKEGGKYYYYALDVWGQGTTVTVSSASTKGPSVFPLAPSSKSTSGGTAALGCLVKDYFPEPVTVSWNSGALTSGVHTFPAVLQSSGLYSLSSVVTVPSSSLGTQTYICNVNHKPSNTKVDKKVEPKSCDKTHTCPPCPAPEAAGASSVFLFPPKPKDTLMISRTPEVTCVVVDVSAEDPEVKFNWYVDGVEVHNAKTKPREEQYNSTYRVVSVLTVLHQDWLNGKEYKCKVSNKALPSSIEKTISKAKGQPREPQVYTLPPSREEMTKNQVSLTCLVKGFYPSDIAVEWESNGQPENNYKTTPPVLDSDGSFFLYSKLTVDKSRWQQGNVFSCSVMHEALHNHYTQKSLSLSPGK light: SYELTQPPSVSVSPGQTASITCSGDKLGDKYAAWYQQKPGQSPVLVIYQDSRRPSGIPERFSGSNSGNTATLTISGTQAMDEADYYCQAWASSTVVFGGGTKLTVLGQPKAAPSVTLFPPSSEELQANKATLVCLISDFYPGAVTVAWKADSSPVKAGVETTTPSKQSNNKYAASSYLSLTPEQWKSHRSYSCQVTHEGSTVEKTVAPTECS |  |  |  |  |  |  | 0.181 | 0.132 | 0.108 | 0.245 | 0.22 | 0.107 | 0.000307 | 2.86e+06 | 0.0496
